T1: human IL-17B (human, UniProt Q9UHF5 21-180)
T1 construct: expressed in E. coli; also called hIL-17B
T1 sequence (looked up): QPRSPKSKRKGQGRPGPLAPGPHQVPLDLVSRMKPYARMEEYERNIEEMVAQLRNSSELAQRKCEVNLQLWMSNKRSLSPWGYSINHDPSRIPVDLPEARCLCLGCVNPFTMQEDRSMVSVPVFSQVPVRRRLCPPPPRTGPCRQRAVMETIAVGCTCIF

T2: human IL-17D (human, UniProt Q8TAD2 18-202, limits assumed)
T2 construct: expressed in E. coli; also called hIL-17D
T2 sequence (looked up): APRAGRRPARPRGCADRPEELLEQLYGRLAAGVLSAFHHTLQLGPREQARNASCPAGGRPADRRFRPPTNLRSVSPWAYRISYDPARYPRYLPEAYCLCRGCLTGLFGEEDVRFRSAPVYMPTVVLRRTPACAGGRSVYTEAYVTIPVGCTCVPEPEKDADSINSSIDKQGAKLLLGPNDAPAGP

T3: human IL-17E (human, UniProt Q9H293 33-177)
T3 construct: expressed in E. coli; also called hIL-17E
T3 sequence (looked up): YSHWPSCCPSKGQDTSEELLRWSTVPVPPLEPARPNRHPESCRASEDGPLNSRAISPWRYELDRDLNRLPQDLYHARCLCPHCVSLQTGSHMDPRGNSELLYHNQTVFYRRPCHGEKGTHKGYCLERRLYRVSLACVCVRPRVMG

T4: human IL-17C (human, UniProt Q9P0M4 19-197)
T4 construct: expressed in E. coli; also called hIL-17C
T4 sequence (looked up): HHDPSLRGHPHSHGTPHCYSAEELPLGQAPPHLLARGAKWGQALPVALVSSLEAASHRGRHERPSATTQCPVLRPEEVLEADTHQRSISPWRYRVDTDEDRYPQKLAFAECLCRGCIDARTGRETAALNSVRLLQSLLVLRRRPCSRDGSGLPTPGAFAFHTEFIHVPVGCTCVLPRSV

T5: human IL-17F (human, UniProt Q96PD4 31-163)
T5 construct: made in Hek293 cells (GenBank AF384857); also called hIL-17F; hIL17F
T5 sequence: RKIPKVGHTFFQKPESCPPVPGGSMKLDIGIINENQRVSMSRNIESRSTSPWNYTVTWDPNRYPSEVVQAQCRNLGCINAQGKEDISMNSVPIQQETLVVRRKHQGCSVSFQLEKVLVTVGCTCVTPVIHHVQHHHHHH

T6: rat IL-17F (rat, UniProt Q5BJ95 29-161)
T6 sequence (looked up): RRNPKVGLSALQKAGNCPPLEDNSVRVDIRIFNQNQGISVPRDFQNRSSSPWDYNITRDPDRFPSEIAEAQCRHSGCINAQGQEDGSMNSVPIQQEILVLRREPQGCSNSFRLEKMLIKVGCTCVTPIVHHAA

T7: mouse IL-17A (mouse, UniProt Q62386 26-158)
T7 sequence (looked up): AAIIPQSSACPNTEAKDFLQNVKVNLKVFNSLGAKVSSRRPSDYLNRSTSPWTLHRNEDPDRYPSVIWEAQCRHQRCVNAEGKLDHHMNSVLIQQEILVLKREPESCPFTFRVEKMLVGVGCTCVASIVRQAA

T8: mouse IL-17F (mouse, UniProt Q7TNI7 29-161)
T8 sequence (looked up): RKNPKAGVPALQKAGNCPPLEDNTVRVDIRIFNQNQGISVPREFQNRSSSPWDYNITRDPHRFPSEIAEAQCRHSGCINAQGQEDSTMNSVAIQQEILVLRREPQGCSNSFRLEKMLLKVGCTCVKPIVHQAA

T9: rat IL-17A (rat, UniProt Q61453 18-150, limits assumed)
T9 construct: made in E. coli, bought
T9 sequence (looked up): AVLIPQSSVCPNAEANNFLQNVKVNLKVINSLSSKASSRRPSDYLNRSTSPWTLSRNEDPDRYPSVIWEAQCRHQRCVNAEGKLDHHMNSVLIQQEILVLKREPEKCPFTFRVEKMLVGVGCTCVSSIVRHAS

B1: 11A06 (VHH)
VHH: EVQLVESGGGLVQPGESLRLSCKASGFSLDYYALGWFRQAPGKEREGISCITSSDASAYYTDSVKGRFTISRDNSKNTVYLQMNSLKTEDTAIYYCAAALLTCSSYYDAYTYWGQGTQVTVSS
notes: Class 2
B2: 01A01 (VHH)
VHH: EVQLVESGGGLVQAGGSLRLSCAASGFTFDDYDIGWFRQAPGKEREGVSCFTSSDGRTFYADSVKGRFTVSADNAKNTVYLQMNSLEPEDTAVYFCAAVNTFDESAYAAFACYDVVRWGQGTQVTVSS
notes: Class 4
B3: 04G01 (VHH)
VHH: EVQLVESGGGLVQAGGSQRLSCTASGTIVNIHVMGWYRQAPGKQRELVALIFSGGSADYADSVKGRFTISRDNAKNTVYLEMNSLKAEDTAVYYCAAEIGYYSGGTYYSSEAHWGQGTQVTVSS
notes: Class 2; also called IL17MS04G01; 04G1
B4: 09G10 (VHH)
VHH: EVQLVESGGGLVQAGGSLRLSCAASDSVFTAKAVGWYRQPPGLQREWVAIITSGGKTNYADSSVKGRFTVSVDKVKNTVTLQMNSLKPEDTAVYYCYAQWMGRDYWGQGTQVTVSS
notes: Class 2
B5: 02A08 (VHH)
VHH: EVQLVESGGGVVQPGGSLRLSCADSERSFSFNAMGWFRQAPGKEREFVAAISATGDDTYYADSVKGRFAISRDTARNTVYLQMNSLKPEDTAVYYCGARVNFDGTVSYTNDYAYWGQGTQVTVSS
notes: Class 2
B6: 04B09 (VHH)
VHH: EVQLVESGGGLVQPGGSLRLSCAASGFTLGYYAIGWFRQAPGKEREGVSCDSSSDGDTYYANSVKGRFTISTDNGKNTVYLQMNSLKPEDTAVYYCATCTDWNYDYWGQGTQVTVSS
notes: Class 2; also called 04B9
B7: 11C08 (VHH)
VHH: EVQLVESGGGLVQAGGSLRLSCAASGVIFRLNAMGWYRAAPGKQRELVAIIVNGGSTNYADSVKGRFTISRDSAKNAVYLQMNSLKPEDTAVYYCYYNIPGDVYWGQGTQVTVSS
notes: Class 4
B8: 03C07 (VHH)
VHH: EVQLVESGGGLVQAGGSLRLSCAASGFTFDDYAIGWFRQAPGKEREAVSCFSSSDGSIYYADSVKGRFTISSDNAKNTVYLQMNSLKPEDTAVYYCAGGGGSYYYTQLNYCYDMDYWGKGTQVTVSS
notes: Class 2
B9: IL17MS3038 (VHH)
VHH: EVQLVESGGGLVQAGGSLRLSCAASGRTYDAVGWLRQAPGKEREFVAAISGSGDDTYYADSVKGRFTISKDNAGITMYLQMNSLKPEDTAVYYCATRRGLYYVWDSNDYENWGQGTQVTVSS
notes: variant of IL17MS13E02; Kabat numbering
B10: IL17MS3039 (VHH)
VHH: B9 VHH with V32M, M77V
notes: as for B9
B11: IL17MS3049 (VHH)
VHH: EVQLVESGGGSVQPGDSLRLSCAASGRANSINWFGWFRQAPGKEREFVAGIRWSDAYTEYANSVKGRFTISRDNSKNTVYLQMDSLRPEDTAVYYCVLDLSTVRYWGQGTLVTVSS
notes: variant of IL17MS13B03; Kabat numbering
B12: IL17MS3050 (VHH)
VHH: B11 VHH with D16G, A40T, Y80D
notes: as for B11

Positions count from the first letter of the chain named.

T11 sequence (Q16552 other isoform, or with tags, fused parts or gaps): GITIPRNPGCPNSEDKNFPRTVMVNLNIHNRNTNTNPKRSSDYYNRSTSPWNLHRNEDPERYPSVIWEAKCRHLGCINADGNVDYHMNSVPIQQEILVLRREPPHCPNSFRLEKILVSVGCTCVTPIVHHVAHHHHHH

The target of the first test is T1, human IL-17B. Put plainly: SPR, cytokine on chip. On the technique in general: In SPR one partner is held on a chip, and binding of the other changes the refractive index at the surface.
Text: (§1) Human IL-17B, IL-17C, IL-17D or IL-17E were all expressed in E. coli, and covalently bound to a CM sensor chip surface via amine coupling using EDC/NHS for activation and HCl for deactivation.
(§2) Next, binding buffer was sent over the chip at the same flow rate to allow spontaneous dissociation of bound Nanobody or antibody.
Take B1: the binding result is listed as “no binding”.

On to B2, for which the binding result is reported as “no binding”.

Turning to B3, the binding result is “no binding”.

Take B4: the binding result is “no binding”.

With B5, the binding result is reported as “no binding”.

For B6, the binding result is on record as “no binding”.

For B7, the binding result was “no binding”.

B8: the binding result is “no binding”.

The next test has as its target T2, human IL-17D. Put plainly: SPR, cytokine on chip.
Text: as §1, §2
As to B1, the binding result was “no binding”.

As for B2, the binding result is on record as “no binding”.

As for B3, the binding result is “no binding”.

Consider B4, for which the binding result is “no binding”.

B5: the binding result was “no binding”.

As for B6, the binding result is listed as “no binding”.

For B7, the binding result is “no binding”.

B8: the binding result was “no binding”.

For the next test, the target named is T3, human IL-17E. Put plainly: SPR, cytokine on chip.
Text: as §1, §2
On to B1, for which the binding result was “no binding”.

Regarding B2, the binding result is listed as “no binding”.

For B3, the binding result is on record as “no binding”.

For B4, the binding result is given as “no binding”.

On to B5, for which the binding result was “no binding”.

Take B6: the binding result is “no binding”.

Turning to B7, the binding result is “no binding”.

Regarding B8, the binding result was “no binding”.

A further test addresses T4, human IL-17C. Kind of test: SPR, cytokine on chip.
Text: as §1, §2
On to B1, for which the binding result was “no binding”.

For the molecule B2, the binding result is recorded as “no binding”.

For B3, the binding result was “no binding”.

Turning to B4, the binding result is recorded as “no binding”.

With B5, the binding result is on record as “no binding”.

For B6, the binding result is “no binding”.

On to B7, for which the binding result is on record as “no binding”.

As to B8, the binding result is listed as “no binding”.

The target in the next test is T5, human IL-17F. Put plainly: AlphaScreen hIL-17F-IL-17RC; vs IL17MS13E02. Background: In Alpha technology, singlet oxygen from a donor bead excites a nearby acceptor bead.
Regarding B9, the “IC50 fold difference vs WT” value came out at 3.2 fold.

Take B10: the “IC50 fold difference vs WT” value stood at 1.25 fold.

The target in the next test is T10, human IL-17A/F heterodimer (human, UniProt Q16552 24-155; Q96PD4 31-163, limits assumed).
T10 construct: bought, made in E. coli (R&D Systems 5194-IL/CF); also called hIL-17A/F; hIL17A/F
T10 sequence (Q16552 24-155 limits assumed, chain 1 of 2, one chain of several): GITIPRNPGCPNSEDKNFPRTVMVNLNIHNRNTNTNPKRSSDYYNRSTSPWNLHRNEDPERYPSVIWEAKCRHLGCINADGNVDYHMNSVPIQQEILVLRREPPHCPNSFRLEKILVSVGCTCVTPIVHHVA
Kind of test: SPR (Biacore) off-rate.
Take B11: the off-rate (koff) (in general, the rate constant with which the complex falls apart) was 0.000248 s⁻¹.

For the molecule B12, the koff was 0.000575 s⁻¹.

In the next test the target is T5, human IL-17F. Kind of test: SPR (Biacore) off-rate.
In the case of B11, the koff was determined as 0.00757 s⁻¹.

For B12, the koff amounted to 0.00855 s⁻¹.

Another test concerns the target T11, human IL-17A (human, UniProt Q16552 24-155).
T11 construct: secreted form made in Hek293 cells (GenBank U32659); also called hIL-17A; hIL17A
Put plainly: SPR (Biacore) off-rate.
As to B11, the koff amounted to 0.00015 s⁻¹.

On to B12, for which the koff is 0.000267 s⁻¹.

For another test, the target named is T6, rat IL-17F. Kind of test: binding ELISA. (In general: ELISA stands for enzyme-linked immunosorbent assay.)
Experimental: (§3) Binding of a selected panel of anti-IL-17 Nanobodies to IL-17 of other species was assessed using a binding ELISA. […] HRP (horseradish peroxidase) conjugated anti-myc (Serotec, MCA 2200P) was used for detection using esTMB as substrate.
For the molecule B2, the binding result is given as “no binding (tested: 250 nM)”.

In the case of B7, the binding result was “no binding (tested: 250 nM)”.

The next test has as its target T7, mouse IL-17A. Put plainly: binding ELISA.
Experimental: as §3
For B1, the binding result is “no binding (tested: 250 nM)”.

Consider B2, for which the binding result is on record as “no binding (tested: 250 nM)”.

Turning to B3, the binding result was “no binding (tested: 250 nM)”.

With B4, the binding result was “no binding (tested: 250 nM)”.

Take B5: the binding result is reported as “no binding (tested: 250 nM)”.

Regarding B6, the binding result is on record as “no binding (tested: 250 nM)”.

Consider B7, for which the binding result is recorded as “no binding (tested: 250 nM)”.

Regarding B8, the binding result is recorded as “no binding (tested: 250 nM)”.

For a further test, the target named is T8, mouse IL-17F. Kind of test: binding ELISA.
Experimental: as §3
For the molecule B2, the binding result is on record as “no binding (tested: 250 nM)”.

Regarding B7, the binding result is on record as “no binding (tested: 250 nM)”.

Another test has as its target T9, rat IL-17A. Put plainly: binding ELISA.
Experimental: as §3
Regarding B1, the binding result is on record as “no binding (tested: 250 nM)”.

Consider B2, for which the binding result is given as “no binding (tested: 250 nM)”.

On to B3, for which the binding result was “no binding (tested: 250 nM)”.

Consider B4, for which the binding result is “no binding (tested: 250 nM)”.

On to B5, for which the binding result was “no binding (tested: 250 nM)”.

Take B6: the binding result is listed as “no binding (tested: 250 nM)”.

Take B7: the binding result was “no binding (tested: 250 nM)”.

Regarding B8, the binding result is “no binding (tested: 250 nM)”.

The next test addresses T10, human IL-17A/F heterodimer. Put plainly: SPR (Biacore) off-rate. This is another data set of the same source.
Consider B9, for which the koff was determined as 6.82e-05 s⁻¹.

Take B10: the koff came to 4.03e-05 s⁻¹.

Another test concerns the target T5, human IL-17F. Put plainly: SPR (Biacore) off-rate. This is another data set of the same source.
B9 registered a koff of 0.0101 s⁻¹.

Consider B10, for which the koff was determined as 0.00515 s⁻¹.

The target in the next test is T11, human IL-17A. Kind of test: SPR (Biacore) off-rate. The source holds these as a separate data set.
The molecule B9 returned a koff of 0.000225 s⁻¹.

B10 showed a koff of 0.00021 s⁻¹.
